Experimental data published in the RNAGym collection of RNA variant scans (doi:10.7554/elife.90254).

B1: LINE1-mini (parent)
chain: GGCAGAGCUCAACACAGCGUGGCAAAGUGGCUGUGGCUAGACUGCC

Variants of: B1
Assay: self-cleavage, relative activity (ratio to wild type); higher = more cleavage; in vitro, sequencing; the parent is a self-cleaving ribozyme
GGCAGAGCUCAACAAAGCGUGGCAAAGUGGAUGUGGCUAGACUGCC [C15A C31A] showed a self-cleavage of 0.05. Work on GGCAGAGCUCAACAAAGCGUGGCAAAGUGGUUGUGGCUAGACUGCC [C15A C31U] yielded a self-cleavage of 0.04. Variant GGCAGAGCUCAACAAAGCGUGGCAAAGUGGGUGUGGCUAGACUGCC [C15A C31G] has a self-cleavage of 0.03. GGCAGAGCUCAACAGAGCGUGGCCAAGUGGCUGUGGCUAGACUGCC [C15G A24C] showed a self-cleavage of 0.02. Work on GGCAGAGCUCAACAGAGCGUGGCGAAGUGGCUGUGGCUAGACUGCC [C15G A24G] yielded a self-cleavage of 0.03. With GGCAGAGCUCAACAGAGCGUGGCUAAGUGGCUGUGGCUAGACUGCC [C15G A24U] the self-cleavage was 0.02. With GGCAGAGCUCAACAGAGCGUGGCAAAGUGGCUGUGGCUAGAAUGCC [C15G C42A] the self-cleavage was 0.04. GGCAGAGCUCAACAGAGCGUGGCAAAGUGGCUGUGGCUAGAUUGCC [C15G C42U] gave a self-cleavage of 0.04. With GGCAGAGCUCAACAGAGCGUGGCAAAGUGGCUGUGGCUAGAGUGCC [C15G C42G] the self-cleavage was 0.1. With GGCAGAGCUCAACAGAGCGUGGCAAAGUGGCUGUGGCUAGACUGCC [C15G] the self-cleavage was 0.07. Work on GGCAGAGCUCAACAAAGCGUCGCAAAGUGGCUGUGGCUAGACUGCC [C15A G21C] yielded a self-cleavage of 0.11. GGCAGAGCUCAACAAAGCGUAGCAAAGUGGCUGUGGCUAGACUGCC [C15A G21A] gave a self-cleavage of 0.16. GGCAGAGCUCAACAAAGCGUUGCAAAGUGGCUGUGGCUAGACUGCC [C15A G21U] showed a self-cleavage of 0.12. Work on GGCAGAGCUCAACAGAGCGUGGCAUAGUGGCUGUGGCUAGACUGCC [C15G A25U] yielded a self-cleavage of 0.04. In the case of GGCAGAGCUCAACAGAGCGUGGCAGAGUGGCUGUGGCUAGACUGCC [C15G A25G], the self-cleavage is reported as 0.06. For GGCAGAGCUCAACAGAGCGUGGCACAGUGGCUGUGGCUAGACUGCC [C15G A25C], the self-cleavage was 0.02. With GGCAGAGCUCAACAAAGCGUGGCAAAGUGGCUGUGGUUAGACUGCC [C15A C37U] the self-cleavage was 0.1. Variant GGCAGAGCUCAACAAAGCGUGGCAAAGUGGCUGUGGGUAGACUGCC [C15A C37G] has a self-cleavage of 0.04. GGCAGAGCUCAACAAAGCGUGGCAAAGUGGCUGUGGAUAGACUGCC [C15A C37A] showed a self-cleavage of 0.08. In the case of GGCAGAGCUCAACAGAGCGUGGAAAAGUGGCUGUGGCUAGACUGCC [C15G C23A], the self-cleavage is reported as 0.06. Work on GGCAGAGCUCAACAGAGCGUGGUAAAGUGGCUGUGGCUAGACUGCC [C15G C23U] yielded a self-cleavage of 0.08. With GGCAGAGCUCAACAGAGCGUGGGAAAGUGGCUGUGGCUAGACUGCC [C15G C23G] the self-cleavage was 0.12. For GGCAGAGCUCAACAAAGCGUGGCAAAGUGGCUGUGGCUACACUGCC [C15A G40C], the self-cleavage was 0.07. GGCAGAGCUCAACAAAGCGUGGCAAAGUGGCUGUGGCUAUACUGCC [C15A G40U] gave a self-cleavage of 0.06. GGCAGAGCUCAACAAAGCGUGGCAAAGUGGCUGUGGCUAAACUGCC [C15A G40A] showed a self-cleavage of 0.04. GGCAGAGCUCAACAAAGCGUGGCAAAGUGGCUGUGGCUAGACAGCC [C15A U43A] gave a self-cleavage of 0.07. Work on GGCAGAGCUCAACAAAGCGUGGCAAAGUGGCUGUGGCUAGACCGCC [C15A U43C] yielded a self-cleavage of 0.04. GGCAGAGCUCAACAAAGCGUGGCAAAGUGGCUGUGGCUAGACGGCC [C15A U43G] gave a self-cleavage of 0.07. For GGCAGAGCUCAACAGAGCGUGGCAAAGUGGCUGUGGCUAGGCUGCC [C15G A41G], the self-cleavage was 0.04. GGCAGAGCUCAACAGAGCGUGGCAAAGUGGCUGUGGCUAGUCUGCC [C15G A41U] showed a self-cleavage of 0.06. For GGCAGAGCUCAACAGAGCGUGGCAAAGUGGCUGUGGCUAGCCUGCC [C15G A41C], the self-cleavage was 0.04. With GGCAGAGCUCAACAAAGCGUGGCAAAGGGGCUGUGGCUAGACUGCC [C15A U28G] the self-cleavage was 0.06. Work on GGCAGAGCUCAACAAAGCGUGGCAAAGAGGCUGUGGCUAGACUGCC [C15A U28A] yielded a self-cleavage of 0.1. Variant GGCAGAGCUCAACAAAGCGUGGCAAAGCGGCUGUGGCUAGACUGCC [C15A U28C] has a self-cleavage of 0.12. Variant GGCAGAGCUCAACAGAGCGUGGCAAAGUGGCUGUGGCUCGACUGCC [C15G A39C] has a self-cleavage of 0.02. GGCAGAGCUCAACAGAGCGUGGCAAAGUGGCUGUGGCUUGACUGCC [C15G A39U] gave a self-cleavage of 0.04. GGCAGAGCUCAACAGAGCGUGGCAAAGUGGCUGUGGCUGGACUGCC [C15G A39G] showed a self-cleavage of 0.03. Variant GGCAGAGCUCAACAAAGCGUGGCAAAGUGACUGUGGCUAGACUGCC [C15A G30A] has a self-cleavage of 0.06. In the case of GGCAGAGCUCAACAAAGCGUGGCAAAGUGUCUGUGGCUAGACUGCC [C15A G30U], the self-cleavage is reported as 0.07. With GGCAGAGCUCAACAAAGCGUGGCAAAGUGCCUGUGGCUAGACUGCC [C15A G30C] the self-cleavage was 0.05. Variant GGCAGAGCUCAACAAAGUGUGGCAAAGUGGCUGUGGCUAGACUGCC [C15A C18U] has a self-cleavage of 0.14. Variant GGCAGAGCUCAACAGAGCGUGGCAAUGUGGCUGUGGCUAGACUGCC [C15G A26U] has a self-cleavage of 0.07. In the case of GGCAGAGCUCAACAGAGCGUGGCAAGGUGGCUGUGGCUAGACUGCC [C15G A26G], the self-cleavage is reported as 0.03. GGCAGAGCUCAACAGAGCGUGGCAACGUGGCUGUGGCUAGACUGCC [C15G A26C] gave a self-cleavage of 0.04. For GGCAGAGCUCAACAAAGCGUGGCAAAGUGGCUGUGGCUAGAGUGCC [C15A C42G], the self-cleavage was 0.04. For GGCAGAGCUCAACAAAGCGUGGCAAAGUGGCUGUGGCUAGAUUGCC [C15A C42U], the self-cleavage was 0.05. In the case of GGCAGAGCUCAACAAAGCGUGGCAAAGUGGCUGUGGCUAGAAUGCC [C15A C42A], the self-cleavage is reported as 0.06. With GGCAGAGCUCAACAAAGCGUGGCAAAGUGGCUAUGGCUAGACUGCC [C15A G33A] the self-cleavage was 0.11. Work on GGCAGAGCUCAACAAAGCGUGGCAAAGUGGCUUUGGCUAGACUGCC [C15A G33U] yielded a self-cleavage of 1.81. GGCAGAGCUCAACAAAGCGUGGCAAAGUGGCUCUGGCUAGACUGCC [C15A G33C] gave a self-cleavage of 0.06. GGCAGAGCUCAACAAAGCGUGGCAAAGUGGCUGUGGCUAGACUGCU [C15A C46U] showed a self-cleavage of 0.12. Work on GGCAGAGCUCAACAAAGCGUGGCAAAGUGGCUGUGGCUAGACUGCA [C15A C46A] yielded a self-cleavage of 0.09. GGCAGAGCUCAACAAAGCGUGGCAAAGUGGCUGUGGCUAGACUGCG [C15A C46G] showed a self-cleavage of 0.05. With GGCAGAGCUCAACAAAGCGUGGCAAAGUGGCUGUGUCUAGACUGCC [C15A G36U] the self-cleavage was 0.06. With GGCAGAGCUCAACAAAGCGUGGCAAAGUGGCUGUGCCUAGACUGCC [C15A G36C] the self-cleavage was 0.04. In the case of GGCAGAGCUCAACAAAGCGUGGCAAAGUGGCUGUGACUAGACUGCC [C15A G36A], the self-cleavage is reported as 0.14.
